In publication PMC7987339:

Molecular target: Hfq (Escherichia coli) (UniProt P0A6X3)
Assay: competition
Conditions: 10 nM (so in the source) Tris-HCl pH 8.0, 1 mM DTT, 1 mM MgCl2, 20 mM KCl, 10 mM Na phosphate pH 8.0, 12.5 ug/mL yeast tRNA; 15 min at 37 C; native 5% PAGE in 1X TBE …

Sequence of Hfq (Escherichia coli) (P0A6X3 whole entry): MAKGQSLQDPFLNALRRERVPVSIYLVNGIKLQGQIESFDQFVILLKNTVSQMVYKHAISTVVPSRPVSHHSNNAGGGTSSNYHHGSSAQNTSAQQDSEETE

## GGACACCGUCGCUUAAAGUGACGGCAUAAUAAUAAAAAAAUGAAAUUCCUCUUUGACGGGCCAAUAGCGAUAUUGGCCAUUUUUUU [ChiX sRNA]
  binding: binds
